From US20210261685A1 (Alector, published 2021)

T1: murine MerTK extracellular domain (ECD), recombinant (mouse, UniProt Q60805 19-497)
T1 construct: also called moMerTK; mouse MerTK; not shown: polyHis tag or TEVS/Thrombin/murine IgG2a Fc tag
T1 sequence: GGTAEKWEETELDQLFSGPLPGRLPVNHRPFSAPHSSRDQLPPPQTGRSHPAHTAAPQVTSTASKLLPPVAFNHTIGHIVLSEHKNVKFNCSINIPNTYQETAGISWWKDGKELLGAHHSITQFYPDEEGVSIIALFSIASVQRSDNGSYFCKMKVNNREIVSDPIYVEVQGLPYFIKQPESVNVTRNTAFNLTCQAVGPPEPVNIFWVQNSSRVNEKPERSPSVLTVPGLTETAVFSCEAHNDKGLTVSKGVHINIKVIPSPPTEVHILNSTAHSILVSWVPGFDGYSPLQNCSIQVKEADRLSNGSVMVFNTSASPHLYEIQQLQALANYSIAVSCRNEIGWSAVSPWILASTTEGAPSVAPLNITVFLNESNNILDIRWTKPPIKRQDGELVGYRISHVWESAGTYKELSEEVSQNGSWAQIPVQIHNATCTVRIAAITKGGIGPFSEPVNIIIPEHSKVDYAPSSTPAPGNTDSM

T2: human MerTK extracellular domain (ECD), recombinant (human, UniProt Q12866 21-505)
T2 construct: also called huMerTK; not shown: polyHis tag or TEVS/Thrombin/murine IgG2a Fc tag
T2 sequence: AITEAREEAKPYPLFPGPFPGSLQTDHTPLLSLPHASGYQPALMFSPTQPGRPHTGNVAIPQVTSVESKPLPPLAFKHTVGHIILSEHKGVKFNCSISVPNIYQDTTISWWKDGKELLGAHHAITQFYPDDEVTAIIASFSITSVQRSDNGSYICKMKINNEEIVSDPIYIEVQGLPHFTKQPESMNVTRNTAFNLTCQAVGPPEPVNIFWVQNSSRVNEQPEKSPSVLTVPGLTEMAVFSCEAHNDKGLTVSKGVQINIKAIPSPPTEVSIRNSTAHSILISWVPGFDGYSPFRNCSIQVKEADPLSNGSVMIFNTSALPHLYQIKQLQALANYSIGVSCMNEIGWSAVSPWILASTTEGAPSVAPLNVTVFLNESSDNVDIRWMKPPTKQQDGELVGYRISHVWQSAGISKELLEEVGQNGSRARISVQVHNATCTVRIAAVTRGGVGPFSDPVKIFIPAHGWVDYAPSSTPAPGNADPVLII


Columns and labels:
[1] = biological target: T1, murine MerTK extracellular domain …; assay: SPR, Carterra LSA, antibody immobilised
Method in brief: (§1)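 Anti-MerTK antibodies diluted to 10 μg/ml in 10 mM Acetate, pH 4.25 were amine-coupled in a 96-spot array onto an HC200M chip activated with MES/sulfo-NHS/EDC, then blocked with 1M Ethanolamine pH 8.5. On a Carterra LSA, recombinant MerTK extracellular domain was injected at 33.3, 100, and 300 nM in HBS-TE with 0.5 mg/ml BSA, lowest to highest without regeneration. KD came from fitted k-on and k-off.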

[2] = biological target: T2, human MerTK extracellular domain (ECD), …; assay: SPR, Carterra LSA, antibody immobilised
Method in brief: as §1

Binder | binding result [1] | Kd [2] [nM] | Kd [1] [nM]
MTK-26 (antibody, human IgG1, V domains shown) VH: AVQFQESGPGLVKLSQSLSLTCSVTGYSITSGYYWDWIRQFPGNKLEWMGYISYDGSNNYNPSLKNRISITRDTSKNQFFLKLNSVTTEDTATYYCAREGGYYRSMDYWGQGTSVTVSS VL: QIVLTQSPAIMSASPGEKVTIACSASSSVSFMHWFQQKPGTSPRLWIYSTSNLASGVPARFSGSGSGTSYSLTISRMEAEDAATYYCQQRSSYPFTFGSGTKLEIK | no binding (tested: 300 nM) | 30 | –
MTK-24 (antibody, human IgG1, V domains shown) VH: QVQLQQPGAELVKPGASVKLSCKASGYTFTSYWMHWVKQRPGQGLEWIGMIHPNINTNYNEKFKSKATLTVDISSSTAYMQLSSLTSEDSAVYYCAKRSPYSNYDWYFDVWGTGTTVTVSS VL: DIQMTQSPASLSVSVGETVTITCRASENIYSNLAWYQQKQGKSPQLLVYAATNLADGVPSRFSGSGSGTQYSLKINSLQSEDFGSYYCQHFWGTPLTFGAGTKLELK | – | 41 | 55
MTK-31 (antibody, human IgG1, V domains shown) VH: QIQLVQSGPELKKSGETVKISCKASGYTFTSYGMSWVKQAPGKGLKWMGWINTYSGVPTYADDFKGRFAFSLETSASTAYLQINNLKNEDTATYFCASLSYDGSLYHAMDYWGQGTSVTVSS VL: DVSMTQTPLSLPVSLGDQASISSRSSQTIVHSNGNTYLEWYLQKPGQSPKLLIYKVSNRFSGVPDRFSGSGSGTDFTLKISRVEAEDLGVYYCFQGSHVPWTFGGGTKLEIK | – | 81 | 165
MTK-32 (antibody, human IgG1, V domains shown) VH: QIQLVQSGPELKKPGETVKISCKASGYTFTSYGMSWVHQAPGKGLKWLGWINTYSGVPTYADDFRGRFAFSLDTSVSTASLEINNLQNEDTATYFCAREDNWAWFAYWGQGTLVTVST VL: QIVLSQSPAILSASPGEKVTMTCRATSSVGYMHWYQRKPGSSPKPWIYATSNLASGVPARFSGSGSGTSYSLTISRVEAEDAATYYCQQWSSNPRTFGGGTKLEIK | – | 59 | 186
MTK-14 (antibody, human IgG1, V domains shown) VH: QIQLVQSGPELKKPGETVKISCKASGYTFTNYGMNWVKQAPGKDLQWMGWINTYTGEPTYADDFTGRFAFSLETSASTAYLQINNLKNEDTATYFCAKGGHYAWFAYWGQGTLVTVSA VL: QIVLSQSPAILSASPGEKVTMTCRSSSSVSYMHWYQQKPGSSPKPWIYATSNLASGVPGRFSGSGSGTSYSLTISRVEAEDAATYYCQQWGSNPRTFGGGTKLEIK | no binding (tested: 300 nM) | 45 | –
MTK-08 (antibody, human IgG1, V domains shown) VH: QIQLVQSGPELKKPGETVKISCKASGYTFTNYGMNWVKQAPGKGLKWMGWINTYTGEPTYADDFKGRFAFSLETSASTAYLQINNLKNEDTATYFCAREVRYWYFDVWGAGTTVTVSS VL: QIVLSQSPAILSASPGEKVTMTCRATSSVSYMHWFQQKPGSSPKPWIYATSNLASGVPARFSGSGSGTSYSLTISRVEAEDAAAYYCQHWSGNPRTFGGGTKLEIK | no binding (tested: 300 nM) | 37 | –
MTK-27 (antibody, human IgG1, V domains shown) VH: EVQLQQSGTELVRPGASVKLSCTASGFNIKDDYMHWVQQRPEQGLEWIGWIDPENGNTEYASKFQGKATITADASSNTAYLQLSSLTSEDTAVYYCSTLFSNYFDYWGQGTTLTVSS VL: DIVMTQSQKFMSTSVGDRVSITCKASQNVRTSVAWYQQKPGQSPKALIYLASNRHTGVPDRFTGSGSGTDFTLTISNVRSEDLADYFCLQHWNYPYTFGGGTKLEIK | no binding (tested: 300 nM) | 71 | –

Binders with a lower Kd [2], results first:

binding result [1] | Kd [2] [nM] | Kd [1] [nM] | Binder
– | 23 | 30 | MTK-30 (antibody, human IgG1, V domains shown) VH: QVQLQQPGTELVRPGASVKLSCKASGYTFTSYWMHWVKQRPGQGLEWIGNLNPNNGGTYYNEKFKSKATLTVDKSSSTAYMQLSSLTSEDSAVYYCARQILLYFDYWGQGTTLTVSS VL: DVLMTQTPLSLPVSLGDQASISCRSSQSIVHSNGDTYLEWYLQKPGQSPKLLIYKVSNRFSGVPDRFSGSGSGTDFTLKISRVEAEDLGVYYCFQGSHVPWTFGGGTKLEIK
no binding (tested: 300 nM) | 22 | – | MTK-02 (antibody, human IgG1, V domains shown) VH: QIQLVQSGPELKQPGETVKISCKASGYTFTDYGVNWVKQAPGKGLKWMGWINTYSGEPTYAGDFKGRFAFSLESSASTAFLQINNLKNEDMATYFCARRVRYWYFDVWGAGTSVTVSS VL: QIVLSQSPAILSASPGERVTMTCRANSSVSYMHWYQQKPGSSPKPWIYATSNLASGVPARFSASGSGTSYSLTVSRVEAEDAATYYCQQWGSNPFTFGSGTKLEIK
no binding (tested: 300 nM) | 14 | – | MTK-35 (antibody, human IgG1, V domains shown) VH: QVLLQQSGPELVKPGASVQLSCKASDYTFTSYDIHWVKQRPGQGLEWIGWIYPRDGYTKYNEIFKGKATLTVDTSSTTAYMELHSLTSEDSAVYFCARAYYTNWYYFDYWGQGTTLTVSS VL: EIVLTQSPTTMAASPGEKITITCRASSSISSHYLHWYQQKPGFSPKLLIYRTSNLASGVPARFSGSGSGTSYSLTIGTMEAEDVATYYCQQGSTIPLTFGAGTKLVLK
no binding (tested: 300 nM) | 6.4 | – | MTK-36 (antibody, human IgG1, V domains shown) VH: QVTLKESGPGILQPSQTLSLTCSFSGFSLSTFGMGVGWIRQPSGKGLEWLAHIWWYDDKYYEPALKSRLTISKDSSKNQVFLKIANVDTADTATYYCARIYYGTSYRYFDVWGTGTTVTVSS VL: QIVLSQSPAILSAFPGEKVTMTCRATSSVRYMHWYQQKPGSSPKPWIYATYNLTSGVPARFSGSGSGTSYSLTISRVEAEDAATYYCHQWSSNPYTFGGGTKLEIK
no binding (tested: 300 nM) | 4.1 | – | MTK-28 (antibody, human IgG1, V domains shown) VH: QIQLVQSGPELKKPGETVKISCKASGYTFTTYGMSWVKQAPGKGLKWMGWINTYSGVPTYADDFKGRFAFSLETSASTAYLQINTLKNEDTTTYFCARFLRYYYFDYWGQGTTLTVSS VL: QIVLSQSPVILSASPGEKVTMTCRASSSVTYMHWYQQQPGSSPKPWIYATSNLASGVPARFSGSGSGTSYSLTISRVETEDAATYYCHQWSGNPTFGGGTKLEIN
